Where “and” joins values, the source holds several entries; their conditions need not be identical. Identical values can stand only once. Where a SMILES comes first, the peptide text is derived from it. Bridges are numbered along the chain shown (N, C = ends). The star is where a group is joined. DOTA = O=C(O)CN1CCN(CC(=O)O)CCN(CC(=O)*)CCN(CC(=O)O)CC1
Assays:
[1] = Biodistribution and blood clearance by ICP-MS of Gd
[2] = target: T1, ADAMTS4 in the aortic wall of ApoE−/− mice (Mus musculus, UniProt Q8BNJ2); experiment: LA-ICP-MS spatial localization of Gd in the aortic wall; format: in vivo; conditions: 10 µm cryosections, n = 3 per time point
T1 construct: from tissue
T1 sequence (Q8BNJ2 209-833): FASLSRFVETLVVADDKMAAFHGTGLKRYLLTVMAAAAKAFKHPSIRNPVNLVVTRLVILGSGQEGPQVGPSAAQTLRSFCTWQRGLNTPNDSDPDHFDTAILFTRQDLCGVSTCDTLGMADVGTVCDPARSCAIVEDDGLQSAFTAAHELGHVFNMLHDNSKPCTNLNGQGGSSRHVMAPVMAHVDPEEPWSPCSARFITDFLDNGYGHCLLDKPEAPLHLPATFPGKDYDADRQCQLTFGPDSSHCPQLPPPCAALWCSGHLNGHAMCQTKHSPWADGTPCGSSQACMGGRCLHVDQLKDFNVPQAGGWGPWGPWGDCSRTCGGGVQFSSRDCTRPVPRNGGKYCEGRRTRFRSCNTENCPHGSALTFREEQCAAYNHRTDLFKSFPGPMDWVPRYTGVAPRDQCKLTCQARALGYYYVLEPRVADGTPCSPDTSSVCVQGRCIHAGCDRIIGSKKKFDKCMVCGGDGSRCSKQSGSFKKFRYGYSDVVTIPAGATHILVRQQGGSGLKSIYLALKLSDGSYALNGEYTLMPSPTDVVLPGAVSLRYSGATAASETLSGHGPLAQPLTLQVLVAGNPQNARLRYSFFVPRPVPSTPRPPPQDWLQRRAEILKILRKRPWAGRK
Protocol: Aortic tissues were cut into 10 µm cryosections at −20 °C and mounted on SuperFrost Plus adhesion slides (Thermo Scientific, Waltham, MA, USA). Laser ablation inductively coupled plasma mass spectrometry (LA-ICP-MS) analysis was performed on a commercial LA system (NWR-213, ESI, Bozeman, MT, USA) equipped with a two-volume sample chamber coupled to a sector field ICP-MS (Element XR, Thermo Fisher Scientific, Bremen, Germany) (Supplementary Table 6).
Helium was used as the carrier gas, and argon was added before reaching the torch using a Y-piece (Supplementary Table 7). The ICP-MS was tuned for maximum ion intensity and good signal stability (RSD < 5%), keeping the oxide ratio (ThO/Th) below 1% during the continuous ablation of a microscopic glass slide. Matrix-matched agarose gel standards cast on glass slides were used for drift control and calibration. These standards contain Gd concentrations between 26.6 pg mm^−2 and 600.1 pg mm^−2. Averaged intensities of six line-scans per standard were used for calibration. Data visualization was done in Origin 2022 (OriginLab Corporation, Northampton, MA).

[3] = target: T2, ADAMTS4 in the aneurysmal aortic wall of ApoE−/− mice (Mus musculus, UniProt Q8BNJ2); experiment: In vivo MRI, cross-sectional study (2 and 4 weeks AngII, sham); conditions: for CNR after administration, individual animals: one line per mouse
T2 construct: from tissue
T2 sequence (Q8BNJ2 209-833): T1 sequence (Q8BNJ2 209-833)
Protocol: All procedures and animal maintenance were performed according to the guidelines and regulations of the Federation of Laboratory Animal Science Associations (FELASA) and the local Guidelines and Provisions for Implementation of the Animal Welfare Act. The animal studies were approved by the local authorities (Lageso Berlin.) Mice were obtained from the Research Institute of Experimental Medicine at the Charité Berlin and maintained under barrier conditions, including a dark/light cycle of 12 h, an ambient temperature of 20 °C, and a humidity of 45%. A standard laboratory diet and water were provided ad libitum. For aneurysm induction, male 8-week-old apolipoprotein-E knockout (ApoE^−/−) (B6.129P2-ApoE^tm1Unc/J) mice underwent implantation of osmotic minipumps (Alzet model 2004, Durect Corp). Osmotic minipumps were implanted subcutaneously in the dorsal neck region and continuously delivered angiotensin II (AngII, Merck KGaA, Darmstadt, Germany) (1000 ng/kg/min) for up to 28 days (n = 32). Sham-operated mice (n = 10) served as the control group, receiving saline for 28 days instead of AngII via the osmotic minipumps.
For the cross-sectional study, MR imaging was performed after two and 4 weeks of AngII-infusion (n = 10 per group). […]
MR imaging was performed using a clinical 3 T Siemens system (Biograph, Siemens Healthcare Solutions, Erlangen, Germany). […] Following anesthesia injection, the animals were positioned in a prone position, and body temperature (37 °C) was monitored using an MR-compatible heating system (Model 1025, SA Instruments Inc, Stony Brook, NY) to avoid rapid cooling. […]
Analysis of resulting MR images was performed using OsiriX (version 7.1, OsiriX Foundation, Bernex, Switzerland). […] In order to assess the signal intensities, regions of interest (ROIs) were measured as areas of signal enhancement, which were co-localized with areas of aneurysmal-aortic tissue. For these areas, the CNR was calculated using the following formula: CNR = (Combined vessel-wall and aneurysmal-aortic-tissue-signal − blood-signal)/standard-deviation-signal (noise). […]

[4] = male ApoE−/− mice, i.v., n = 3 per time point

Compound: N=C(N)NCCC[C@@H]1NC(=O)[C@H](CCCNC(=N)N)NC(=O)[C@H](CO)NC(=O)[C@@H](N)CSSC[C@@H](C(=O)N[C@@H](CO)C(=O)NCC(=O)NCC(=O)N[C@@H](CO)C(=O)NCC(=O)NCC(=O)N[C@@H](CCCCNC(=O)CN2CCN(CC(=O)O)CCN(CC(=O)O)CCN(CC(=O)O)CC2)C(=O)NCC(N)=O)NC(=O)CNC1=O (Gd complex, metal not drawn) [ADAMTS4-specific probe] (H-CSRRGCSGGSGGK(DOTA)G-NH2; disulfide 1-6)
- time of highest aortic uptake after intravenous injection ([1]; ApoE−/− mice): 15 min
- blood clearance ([1]; ApoE−/− mice, i.v., over 120 min): rapid blood clearance
- Gd levels in kidneys and urine [1, 4]: Higher levels of Gd
- gadolinium uptake in liver, lung, spleen, heart and muscle [1, 4]: low gadolinium uptake
- colocalization of gadolinium with areas positive for ADAMTS4 [2]: strong colocalization
- CNR after administration, individual animals ([3]; 4 weeks AngII (4w)): 13.92 and 11.1 and 12.72 and 12.01 and 12.59 and 22.52 and 20.4 and 10.53 and 14.06 and 16.11
- CNR of the mice analysed by ICP-MS (Figure 7a) ([3]; individual mice, n = 7): 9.44 and 11.51 and 11.44 and 12.92 and 6.96 and 7.76 and 7.00
- CNR after administration, individual animals ([3]; sham (s)): 6.04 and 7.8 and 7.62 and 6.96 and 7.76 and 7 and 7.77 and 7.23 and 7.52

— article PMC9126943, “ADAMTS4-specific MR probe to assess aortic aneurysms in vivo using synthetic peptide libraries” (Nature Communications, 2022)
